# Patent publication US20080242590A1, “New Method 706” (ASTRAZENECA AB, priority 2007, published 2008)
# B1: Fc-Neprilysin: extracellular domain of human Neprilysin fused to the human IgG2 Fc domain (including hinge), Fc at N-terminus; SEQ ID NO 11 (protein)
# chain: ERKCCVECPPCPAPPVAGPSVFLFPPKPKDTLMISRTPEVTCVVVDVSHEDPEVQFNWYVDGVEVHNAKTKPREEQFNSTFRVVSVLTVVHQDWLNGKEYKCKVSNKGLPAPIEKTISKTKGQPREPQVYTLPPSREEMTKNQVSLTCLVKGFYPSDIAVEWESNGQPENNYKTTPPMLDSDGSFFLYSKLTVDKSRWQQGNVFSCSVMHEALHNHYTQKSLSLSPGKYDDGICKSSDCIKSAARLIQNMDATTEPCTDFFKYACGGWLKRNVIPETSSRYGNFDILRDELEVVLKDVLQEPKTEDIVAVQKAKALYRSCINESAIDSRGGEPLLKLLPDIYGWPVATENWEQKYGASWTAEKAIAQLNSKYGKKVLINLFVGTDDKNSVNHVIHIDQPRLGLPSRDYYECTGIYKEACTAYVDFMISVARLIRQEERLPIDENQLALEMNKVMELEKEIANATAKPEDRNDPMLLYNKMTLAQIQNNFSLEINGKPFSWLNFTNEIMSTVNISITNEEDVVVYAPEYLTKLKPILTKYSARDLQNLMSWRFIMDLVSSLSRTYKESRNAFRKALYGTTSETATWRRCANYVNGNMENAVGRLYVEAAFAGESKHVVEDLIAQIREVFIQTLDDLTWMDAETKKRAEEKALAIKERIGYPDDIVSNDNKLNNEYLELNYKEDEYFENIIQNLKFSQSKQLKKLREKVDKDEWISGAAVVNAFYSSGRNQIVFPAGILQPPFFSAQQSNSLNYGGIGMVIGHEITHGFDDNGRNFNKDGDLVDWWTQQSASNFKEQSQCMVYQYGNFSWDLAGGQHLNGINTLGENIADNGGLGQAYRAYQNYIKKNGEEKLLPGLDLNHKQLFFLNFAQVWCGTYRPEYAVNSIKTDVHSPGNFRIIGTLQNSAEFSEAFHCRKNSYMNPEKKCRVW
# Tests used:
# [1] = Pharmacokinetics of Fc-Nep and commercial neprilysin, single i.v. dose (Example 20); format: in vivo; details: mice, single i.v. dose 1 alternatively 5 mg/kg
# Experimental: The Fc-Nep fusion protein was developed to improve the pharmacokinetic entities of neprilysin with the specific aims to reduce clearance and improve half-life. To test this we have administrated a single i.v. dose of either 1 mg/kg commercial neprilysin or 1 alternatively 5 mg/kg in-house produced Fc-Nep to mice. At set times after dosing blood samples were drawn from the tail vein or by heart puncture at termination. Upon sampling into tubes containing EDTA the aliquots were put on ice. Plasma was prepared by centrifugation within 15 minutes of sampling (typically 1500 g at 4° C. for 10 min) and immediately frozen. Plasma concentrations of Fc-Nep and neprilysin were determined via immunoassays using either anti-Nep for commercial neprilysin or anti-human IgG for Fc-Nep as capture antibodies while both substances were detected via an anti-Nep antibody. Pharmacokinetic parameters are calculated using a software package (WinNonlin, Pharsight Corporation, USA) and in this example experiment the calculated half-life had increased from about 5 minutes for Nep to about 20 hours for Fc-Nep.
# [2] = system: fluorogenic peptide substrate V—Mca-Arg-Pro-Gly-Phe-Ser-Ala-Phe-Lys(Dnp)-OH; experiment: Neprilysin enzyme activity FRET assay, cell media; format: biochemical
# Experimental: The Neprilysin enzymatic activity was determined in a fluorescence resonance energy transfer (FRET) assay. Recombinant Human Neprilysin (R&D Systems), culture medium from Neprilysin or Fc-Neprilysin producing cells (AZ Sodertalje) or purified Neprilysin or Fc-Neprilysin was added into 96-well plate containing 10 μM of fluorogenic peptide substrate V—Mca-Arg-Pro-Gly-Phe-Ser-Ala-Phe-Lys(Dnp)-OH (R&D Systems). The final concentration of the control recombinant human Neprilysin was 0.1 or 0.25 μg/ml. 10 μM of Neprilysin inhibitor phosphoramidone (BIOMOL) was added into some wells in order to control the specificity of the signal in the assay and verify the specific Neprilysin activity. Following addition of all components to wells, plate was immediately placed into a fluorescent plate reader (Ascent) and signal was recorded for every minute for 20 minutes at the excitation 340 nm and emission 405 nm. The activity of enzyme was evaluated by calculating the velocity of reaction−Slope coefficient=ΣΔRFU/Δt. In order to compare the specific activity of the commercial recombinant Neprilysin and Fc-Neprilysin fusion protein, we introduced the specific activity coefficient, which is calculated according to this formula: Specific activity=slope coefficient/pmol of Neprilysin or monomer of Fc-Neprilysin in assay. […]
# [3] = system: soluble Aβ42; experiment: Soluble Aβ42 in plasma after acute i.v. treatment (Example 23); format: in vivo, APPSWE-transgenic mice
# Experimental: The objective with this study was to evaluate the time and dose-response effect of Fc-Nep in plasma of female APPSWE-tg mice after acute intraveneous treatment. The specific purpose is to find an effect on plasma Aβ40 and Aβ42. The γ-secretase inhibitor M-550426 is included as a reference compound.
# 25-31 weeks old female APPSWE-transgenic mice (10 mice/group) received vehicle or the Fc-Nep at 1 or 5 mg/kg as a single intravenous injections. As a reference compound, 300 μmol/kg of the γ-secretase inhibitor M-550426 was used and these animals was treated in 3 hours (4 mice). […] Blood was sampled from vehicle- and compound-treated animals at 1.5 and 3 hours after dose. Blood was withdrawn from anaesthetized mice by heart puncture into pre-chilled microtainer tubes containing EDTA. Blood samples were immediately put on ice prior to centrifugation. Plasma was prepared by centrifugation for 10 minutes at approximately 3000×g at +4° C. within 20 minutes from sampling. After blood sampling, mice were terminated. Aβ40 and Aβ42 levels in plasma were analyzed by commercial ELISA kit obtained from Biosource and Innogenetics, respectively.
# [4] = Observations of animal health (Example 24); format: in vivo, C57BL/6 mice; details: 1 or 5 mg/kg single i.v., whole experiment
# [5] = system: amyloid β 1-40; experiment: Degradation of Aβ 1-40 in human plasma pool (Example 28); format: biochemical; details: room temperature, 1 hour
# Experimental: Blood from twelve individuals (6 females and 6 males) were collected into pre-chilled heparin-plasma tubes at the healthcare centre (AstraZeneca) at three different time points. Plasma was prepared by centrifugation at 2500×g for 20 min at 4° C. Plasma samples were collected and transferred to pre-chilled polypropylene tubes and immediately frozen and stored at −70° C. prior to use. Plasma was thawed and pooled from 12 individuals just before the experiment. Aβ 1-40 and 1-42 in plasma pool was degraded by human Fc-Nep or mouse Fc-Nep with corresponding vehicles (50 mM Tris-HCl, 150 mM NaCl pH 7.5). The following final concentrations of the Fc-Nep constructs were used, 100, 32, 10, 3.2, 1, 0.3, 0.1 and […] and the degradation occurred at room temperature for 1 hour while shaking on an orbital shaker. The enzymatic reaction was stopped by adding Phosphoramidone (10 μM final concentration). Concentration of amyloid β 1-40 in human plasma pool was measured using ELISA kit (Biosource; KHB3481) according to the manufacturers instructions.
# [6] = system: amyloid β 1-40; experiment: Degradation of Aβ 1-40 in APPswe-tg mouse plasma pool (Example 28); format: biochemical; details: room temperature, 1 hour
# Experimental: Mouse plasma collected from 9 animals was stored at −70° C. Plasma was thawed and pooled just before the experiment. Aβ 1-40 and 1-42 in plasma pool was degraded by human Fc-Nep or mouse Fc-Nep with corresponding vehicles (50 mM Tris-HCl, 150 mM NaCl pH 7.5). […] The enzymatic reaction was stopped by adding Phosphoramidone (10 μM final concentration).
# After degradation, before concentration of amyloid β 1-40 in tg-mouse plasma pool was measured using ELISA kit (Biosource; KHB3481), the plasma samples were diluted 20 times in standard diluent buffer, according to manufacturers instructions.
# [7] = highest concentration 100 μg/ml
molecule,measurement,setting,value
B1,calculated half-life,[1],about 20 hours
same,Specific activity (slope coefficient/pmol),[2]; expression with pCEP4 vector,13.4
same,Specific activity (slope coefficient/pmol),[2]; expression with pEAK10 vector,15.2
same,Change in plasma Aβ42,"[3]; 1 mg/kg i.v., 1.5 hours",No significant change
same,Reduction of Aβ42 in plasma compared to vehicle,"[3]; 5 mg/kg i.v., 1.5 hours, P<0.05",approximately 20%
same,Change in plasma Aβ42,"[3]; any of the doses (1 and 5 mg/kg), 3 hours",No significant changes
same,Observations of the animal health,[4],no overt adverse effects
same,Degradation of amyloid β 1-40 compared to plasma without treatment,[5]; [7],66%
same,EC50,[5],580 nM
same,Degradation of amyloid β 1-40 compared to plasma without treatment,[6]; [7],71%
same,EC50,[6],470 nM
